Changes are numbered by the printed parent chain.
Tests used:
Test in all cases: ELISA, bacterial lysate on plate-bound antigen, luminescence
[1] = target: T1, recombinant biotinylated human CD137 protein (Fc-fusion protein, R&D Systems 838-4B) (human, UniProt Q07011 24-186, biotinylated (site not stated))
T1 construct: Bought Fc fusion; The ELISA used the same antigen as the panning; also called CD137-Fc; biotinylated CD137; not shown: Fc part of the bought fusion protein
Outline: (§1)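 Biotinylated CD137-Fc, an unrelated Fc-fusion protein or human serum albumin captured 1 h on streptavidin plates blocked in Starting Block T20; diluted bacterial lysate applied 1 h. Bound binders detected with HRP-conjugated anti-Centyrin antibody (PAB25) for 1 h, then POD substrate read-out.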

human serum albumin = target: T2, human serum albumin (human, UniProt P02768 25-609)
T2 construct: Negative control antigen of the screening ELISA; also called HSA
T2 sequence (P02768 25-609 limits assumed): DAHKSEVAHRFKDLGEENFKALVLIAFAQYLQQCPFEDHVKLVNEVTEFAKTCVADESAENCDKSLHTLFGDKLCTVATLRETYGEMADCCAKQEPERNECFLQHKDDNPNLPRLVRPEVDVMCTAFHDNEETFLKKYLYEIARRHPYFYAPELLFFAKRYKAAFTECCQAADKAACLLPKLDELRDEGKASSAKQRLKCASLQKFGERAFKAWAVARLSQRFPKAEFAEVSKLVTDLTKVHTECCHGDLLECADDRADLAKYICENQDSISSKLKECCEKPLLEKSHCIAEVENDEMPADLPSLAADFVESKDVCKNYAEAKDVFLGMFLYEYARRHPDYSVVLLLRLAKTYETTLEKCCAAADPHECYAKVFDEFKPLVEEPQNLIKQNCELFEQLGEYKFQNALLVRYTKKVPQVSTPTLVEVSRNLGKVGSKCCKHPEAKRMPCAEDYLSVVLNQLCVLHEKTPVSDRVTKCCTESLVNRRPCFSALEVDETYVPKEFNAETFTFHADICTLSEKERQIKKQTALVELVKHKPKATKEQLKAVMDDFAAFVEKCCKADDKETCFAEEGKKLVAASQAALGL
Outline: as §1

[2] = target: unrelated Fc-fused recombinant protein (negative control)

B1: ISOP120AR5P1C3 (designed binder, not shown: small tags and cut ends)
chain: LPAPKNLVVSRVTEDSARLSWSPVDADFTFDSFLIQYQESEKVGEAIVLTVPGSERSYDLTGLKPGTEYTVSIYGVGRHYTVYDSNPLSAIFTT
notes: FN3 domain (Centyrin); tested as E. coli lysate
ELISA CD137-Fc (RLU) [1]: 927000 RLU | ELISA HSA (RLU) (human serum albumin): 240 RLU | ELISA Fc Control (RLU) [2]: 320 RLU

B2: ISOP120BR5P1G4 (designed binder, not shown: small tags and cut ends)
chain: LPAPKNLVVSRVTEDSARLSWAGHYRKIRNFDSFLIQYQESEKVGEAIVLTVPGSERSYDLTGLKPGTEYTVSIYGVKFPYYYATADSNPLSAIFTT
notes: as for B1
ELISA CD137-Fc (RLU) [1]: 580000 RLU | ELISA HSA (RLU) (human serum albumin): 400 RLU | ELISA Fc Control (RLU) [2]: 480 RLU

B3: ISOP120BR5P1A5 (designed binder, not shown: small tags and cut ends)
chain: B2 chain with E56K
notes: as for B1
ELISA CD137-Fc (RLU) [1]: 503000 RLU | ELISA HSA (RLU) (human serum albumin): 400 RLU | ELISA Fc Control (RLU) [2]: 640 RLU

B4: ISOP120FR5P1E10 (designed binder, not shown: small tags and cut ends)
chain: LPAPKNLVVSRVTEDSARLSWTAPDAAFDSFLIHYTEQPSKGEAIVLTVPGSERSYDLTGLKPGTEYQVPIGVKGGTQSCPLSAIFTT
notes: as for B1
ELISA CD137-Fc (RLU) [1]: 953000 RLU | ELISA HSA (RLU) (human serum albumin): 320 RLU | ELISA Fc Control (RLU) [2]: 240 RLU

B5: ISOP120BR5P1F2 (designed binder, not shown: small tags and cut ends)
chain: LPAPKNLVVSRVTEDSARLSWTFHPTFEGFDSFLIQYQESEKVGEAIVLTVPGSERSYDLTGLKPGTEYTVSIYGVKWYAGIGYPVSNPLSAIFTT
notes: as for B1
ELISA CD137-Fc (RLU) [1]: 299000 RLU | ELISA HSA (RLU) (human serum albumin): 240 RLU | ELISA Fc Control (RLU) [2]: 400 RLU

B6: ISOP120BR5P1B7 (designed binder, not shown: small tags and cut ends)
chain: LPAPKNLVVSRVTEDSARLSWGAKTRQFDSFLIQYQESEKVGEAIVLTVPGSERSYDLTGLKPGTEYTVSIYGVWWVENHFPVSNPLSAIFTT
notes: as for B1
ELISA CD137-Fc (RLU) [1]: 565000 RLU | ELISA HSA (RLU) (human serum albumin): 480 RLU | ELISA Fc Control (RLU) [2]: 400 RLU

B7: ISOP120BR5P1D2 (designed binder, not shown: small tags and cut ends)
chain: LPAPKNLVVSRVTEDSARLSWIRKHNHVKWFDSFLIQYQESEKVGEAIVLTVPGSERSYDLTGLKPGTEYTVSIYGVGFLIDTDDSNPLSAIFTT
notes: as for B1
ELISA CD137-Fc (RLU) [1]: 361000 RLU | ELISA HSA (RLU) (human serum albumin): 240 RLU | ELISA Fc Control (RLU) [2]: 720 RLU

B8: ISOP120BR5P1B9 (designed binder, not shown: small tags and cut ends)
chain: LPAPKNLVVSRVTEDSARLSWAVEFNPTKFDSFLIQYQESEKVGEAIVLTVPGSERSYDLTGLKPGTEYTVSIYGVWWFEQWYPVSNPLSAIFTT
notes: as for B1
ELISA CD137-Fc (RLU) [1]: 358000 RLU | ELISA HSA (RLU) (human serum albumin): 400 RLU | ELISA Fc Control (RLU) [2]: 560 RLU

B9: ISOP120BR5P1D3 (designed binder, not shown: small tags and cut ends)
chain: LPAPKNLVVSRVTEDSARLSWSEHPTPFATFDSFLIQYQESEKVGEAIVLTVPGSERSYDLTGLKPGTEYTVSIYGVWWVENHFPVSNPLSAIFTT
notes: as for B1
ELISA CD137-Fc (RLU) [1]: 1.14e+06 RLU | ELISA HSA (RLU) (human serum albumin): 400 RLU | ELISA Fc Control (RLU) [2]: 240 RLU

B10: ISOP120BR5P1E6 (designed binder, not shown: small tags and cut ends)
chain: LPAPKNLVVSRVTEDSARLSWLEGANAEFDSFLIQYQESEKVGEAIVLTVPGSERSYDLTGLKPGTEYTVSIYGVHWVGPWYPVSNPLSAIFTT
notes: as for B1
ELISA CD137-Fc (RLU) [1]: 779000 RLU | ELISA HSA (RLU) (human serum albumin): 400 RLU | ELISA Fc Control (RLU) [2]: 320 RLU

B11: ISOP120BR5P1D9 (designed binder, not shown: small tags and cut ends)
chain: LPAPKNLVVSRVTEDSARLSWTINSHIFDSFLIQYQESEKVGEAIVLTVPGSERSYDLTGLKPGTEYTVSIYGVWGTKYWQAQSNPLSAIFTT
notes: as for B1
ELISA CD137-Fc (RLU) [1]: 1.22e+06 RLU | ELISA HSA (RLU) (human serum albumin): 560 RLU | ELISA Fc Control (RLU) [2]: 560 RLU

B12: ISOP120BR5P1E4 (designed binder, not shown: small tags and cut ends)
chain: LPAPKNLVVSRVTEDSARLSWDDQFEDWFDSFLIQYQESEQVGEAIVLTVPGSERSYDLTGLKPGTEYTVSIYGVHTRDWTAWNASNPLSAIFTT
notes: as for B1
ELISA CD137-Fc (RLU) [1]: 942000 RLU | ELISA HSA (RLU) (human serum albumin): 560 RLU | ELISA Fc Control (RLU) [2]: 320 RLU

B13: ISOP120BR5P1E8 (designed binder, not shown: small tags and cut ends)
chain: LPAPKNLVVSRVTEDSARLSWNGGEYWVPRFDSFLIQYQESEKVGEAIVLTVPGSERSYDLTGLKPGTEYTVSIYGVVWLQWISWTDSNPLSAIFTT
notes: as for B1
ELISA CD137-Fc (RLU) [1]: 906000 RLU | ELISA HSA (RLU) (human serum albumin): 640 RLU | ELISA Fc Control (RLU) [2]: 480 RLU

B14: ISOP120BR5P1C7 (designed binder, not shown: small tags and cut ends)
chain: LPAPKNLVVSRVTEDSARLSWNVTQKEFDSFLIQYQESEKVGEAIVLTVPGSERSYDLTGLKPGTEYTVSIYGVGNRYYTVYDSNPLSAIFTT
notes: as for B1
ELISA CD137-Fc (RLU) [1]: 306000 RLU | ELISA HSA (RLU) (human serum albumin): 240 RLU | ELISA Fc Control (RLU) [2]: 880 RLU

B15: ISOP120BR5P1E2 (designed binder, not shown: small tags and cut ends)
chain: LPAPKNLVVSRVTEDSARLSWAQELDHFDSFLIQYQESEKVGEAIVLTVPGSERSYDLTGLKPGTEYTVSIYGVYWTWWVRWNSNPLSAIFTT
notes: as for B1
ELISA CD137-Fc (RLU) [1]: 882000 RLU | ELISA HSA (RLU) (human serum albumin): 4960 RLU | ELISA Fc Control (RLU) [2]: 5680 RLU

B16: ISOP120BR5P1F1 (designed binder, not shown: small tags and cut ends)
chain: LPAPKNLVVSRVTEDSARLSWTFHPTFEGFDSFLIQYQESEKVGEAIVLTVPGSERSYDLTGLKPGTEYTVSIYGVKWTVLRPWLSNPLSAIFTT
notes: as for B1
ELISA CD137-Fc (RLU) [1]: 542000 RLU | ELISA HSA (RLU) (human serum albumin): 480 RLU | ELISA Fc Control (RLU) [2]: 480 RLU

B17: ISOP120BR5P1G11 (designed binder, not shown: small tags and cut ends)
chain: LPAPKNLVVSRVTEDSARLSWTKRHFYTFDSFLIQYQESEKVGEAIVLTVPGSERSYYLTGLKPGTENTVSIYGVHGNHPYTDAPANPLSAIFTT
notes: as for B1
ELISA CD137-Fc (RLU) [1]: 485000 RLU | ELISA HSA (RLU) (human serum albumin): 560 RLU | ELISA Fc Control (RLU) [2]: 480 RLU

B18: ISOP120BR5P1D8 (designed binder, not shown: small tags and cut ends)
chain: LPAPKNLVVSRVTEDSARLSWKNHTQEWEFDSFLIQYQESEKVGEAIVLTVPGSERSYDLTGLKPGTEYTVSIYGVPIAWLAWTSTSNPLSAIFTT
notes: as for B1
ELISA CD137-Fc (RLU) [1]: 942000 RLU | ELISA HSA (RLU) (human serum albumin): 320 RLU | ELISA Fc Control (RLU) [2]: 480 RLU

B19: ISOP120FR5P1E9 (designed binder, not shown: small tags and cut ends)
chain: LPAPKNLVVSRVTEDSARLSWTAPDAAFDSFIIYYPEYISNGEAIVLTVPGSERSYDLTGLKPGTEYHVTIGVKGGHSWPLSAIFTT
notes: as for B1
ELISA CD137-Fc (RLU) [1]: 1.18e+06 RLU | ELISA HSA (RLU) (human serum albumin): 400 RLU | ELISA Fc Control (RLU) [2]: 320 RLU

B20: ISOP120BR5P1C9 (designed binder, not shown: small tags and cut ends)
chain: LPAPKNLVVSRVTEDSARLSWAWNRHDFDSFLIQYQESEKVGEAIVLTVPGSERSYDLTGLKPGTEYTVSIYGVHWTVLRPFIDSNPLSAIFTT
notes: as for B1
ELISA CD137-Fc (RLU) [1]: 1.27e+06 RLU | ELISA HSA (RLU) (human serum albumin): 560 RLU | ELISA Fc Control (RLU) [2]: 320 RLU

B21: ISOP120BR5P1C1 (designed binder, not shown: small tags and cut ends)
chain: LPAPKNLVVSRVTEDSARLSWVREDAYAFDSFLIQYQESEKVGEAIVLTVPGSERSYDLTGLKPGTEYTVSIYGVSSLHWVVHDSNPLSAIFTT
notes: as for B1
ELISA CD137-Fc (RLU) [1]: 438000 RLU | ELISA HSA (RLU) (human serum albumin): 480 RLU | ELISA Fc Control (RLU) [2]: 480 RLU

B22: ISOP120BR5P1A10 (designed binder, not shown: small tags and cut ends)
chain: LPAPKNLVVSRVTEDSARLSWTEEDITHLRFDSFLIQYQESEKVGEAIVLTVPGSERSYDLTGLKPGTEYTVSIYGVYWTWWVRWNSNPLSAIFTT
notes: as for B1
ELISA CD137-Fc (RLU) [1]: 573000 RLU | ELISA HSA (RLU) (human serum albumin): 26600 RLU | ELISA Fc Control (RLU) [2]: 36200 RLU

B23: ISOP120AR5P1B12 (designed binder, not shown: small tags and cut ends)
chain: LPAPKNLVVSRVTEDSARLSWDGDKWANFKFDSFLIQYQESEKVGEAIVLTVPGSERSYDLTGLKPGTEYTVSIYGVGLHYIVYDSNPLSAIFTT
notes: FN3 domain (Centyrin)
ELISA CD137-Fc (RLU) [1]: 864000 RLU | ELISA HSA (RLU) (human serum albumin): 480 RLU | ELISA Fc Control (RLU) [2]: 400 RLU

B24: ISOP120BR5P1H3 (designed binder, not shown: small tags and cut ends)
chain: LPAPKNLVVSRVTEDSARLSWEESRQFFDSFLIQYQESEKVGEAIVLTVPGSERSYDLTGLKPGTEYTVSIYGVVHRAWLRWNGSNPLSAIFTT
notes: as for B1
ELISA CD137-Fc (RLU) [1]: 875000 RLU | ELISA HSA (RLU) (human serum albumin): 720 RLU | ELISA Fc Control (RLU) [2]: 2000 RLU

B25: ISOP120AR5P1G8 (designed binder, not shown: small tags and cut ends)
chain: LPAPKNLVVSRVTEDSARLSWHATFGDPFDSFLIQYQESEKVGEAIVLTVPGSERSYDLTGLKPGTEYTVSIYGVGRHYTVYDSNPLSAIFTT
notes: as for B1
ELISA CD137-Fc (RLU) [1]: 541000 RLU | ELISA HSA (RLU) (human serum albumin): 320 RLU | ELISA Fc Control (RLU) [2]: 320 RLU

B26: ISOP120AR5P1D9 (designed binder, not shown: small tags and cut ends)
chain: B25 chain with H22N, A23T, T24D, F25W, G26V, D27H, P28T
notes: as for B1
ELISA CD137-Fc (RLU) [1]: 636000 RLU | ELISA HSA (RLU) (human serum albumin): 320 RLU | ELISA Fc Control (RLU) [2]: 320 RLU

B27: ISOP120GR5P1E1 (designed binder, not shown: small tags and cut ends)
chain: LPAPKNLVVSRVTEDSARLSWTAPDAAFDSFIIQYAEDSSWGEAINLHVPGSERSYDLTGLKPGTEYHVHIYGVKGGEASNPLWAWFTT
notes: as for B1
ELISA CD137-Fc (RLU) [1]: 1.02e+06 RLU | ELISA HSA (RLU) (human serum albumin): 320 RLU | ELISA Fc Control (RLU) [2]: 320 RLU

From patent US20220259289A1 (Janssen / Centocor, published 2022)
